Tests used:
[1] = tested on: pro-trypsin-like F. oxysporum protease; test: p45 metalloprotease pH stability; type: biochemical, Fusarium oxysporum; details: 20 minutes pre-incubation at room temperature
Experimental: To determine the pH stability of the recombinant p45 metalloprotease, the partially-purified p45 metalloprotease is diluted 10-fold into universal buffers at pH's of 3.5,4,4.5, 5.2, 5.64, 6, 7, 8, 9, and 10 and pre-incubated at room temperature for 20 minutes. The pre-incubated samples (10 microliters) are added to 40 microliters of buffer containing 0.1M borate, 2 mM CaCl2, and 10 mM dimethylglutarate, pH 6.5 and 50 microliters of crude A. oryzae broth containing pro-trypsin-like F. oxysporum protease and subsequently incubated another 30 minutes.

[2] = tested on: FTC-labeled casein; test: pH profile, FTC-casein hydrolysis; type: biochemical
Experimental: Purified p45 metalloprotease (10 microliters, 0.005 mg/ml) is added to 30 microliters of Universal pH buffer (pH 5-11.5), and 20 microliters of FTC-labeled casein are incubated at 37° C. for 1-hour. 150 microliters of 5% TCA is added to acidify and precipitate casein (1-hour at room temperature). […] Samples are then analyzed on the fluorimeter (slit width=2.5 nm; excitation freq.=490 nm; emission freq.=525 nm; integration time=2 sec).

[3] = tested on: succinyl-Ala-Ala-Ala-p-nitroanilide; test: Hydrolysis of succinyl-Ala-Ala-Ala-p-nitroanilide; type: biochemical
Source text: Both p45 metalloprotease and a neutral zinc endopeptidase secreted by Flavobacterium meningosepticum poorly hydrolyze the substrate N-[3-(2--furyl)acryloyl]-Leu-Gly-NH2. However, the neutral zinc endopeptidase secreted by Flavobacterium meningosepticum will hydrolyze the vertebrate elastase substrate succinyl-Ala-Ala-Ala-p-nitroanilide, a substrate that thermolysin cannot hydrolyze (Table 2). Therefore, succinyl-Ala-Ala-Ala-p-nitroanilide hydrolysis by the p45 metalloprotease is investigated. […] This effect further differentiates the p45 metalloprotease from other existing metalloproteases.

[4] = tested on: pro-trypsin-like Fusarium oxysporum protease; test: Proteolytic enzyme assay: tryptic activity released from pro-trypsin-like protease, L-BAPNA, 405 nm; type: biochemical
Experimental: Metalloprotease activity is measured as released trypsin activity from pro-trypsin-like Fusarium oxysporum protease deposited at the Deutsche Sammlung von Mikroorganismen, Gottingen, Germany under the number DSM 2672, after a 30-60 min pre-incubation at 25° C. in 0.1M Tris, 2 mM CaCl2, pH 7 (at lower pH, 100 mM borate, 10 mM DMG, 2 mM CaCl2 is used).
Metalloproteases contain a catalytic zinc metal center which participates in the hydrolysis of the peptide backbone. The active zinc center differentiates these proteases from calpains whose activities are dependent upon the presence of calcium. Confirmation of a protease as a metallo-protease is loss of proteolytic activity accomplished by removal of the zinc center with 1,10-phenanthroline (1 mM) followed by titration with Zn^2+ (0.1-100 μM) to restore full activity.
However, when combined the metalloprotease cleaves recombinant pro-trypsin-like Fusarium oxysporum protease disclosed, supra to yield the active tryptic protease. Metalloprotease activity is halted upon the addition of 1 mM 1,10-phenanthroline (Table 1).

[5] = tested on: succinylated casein; test: Casein hydrolysis, succinylated casein assay (QuantiCleave, BCA, 600 nm); type: biochemical
Experimental: 400 ul of casein solution (Pierce) is added to small test tubes along with 100 ul of protease. The tubes are vortexed and incubated at room temperature for 40 minutes. The incubation (and assay) buffer is 0.1 M borate, 2 mM CaCl2, and 10 mM dimethylglutarate, pH 6.5. At the end of the incubation, 60 microliters of trichloroacetic acid (100% w/v) is added, and the tubes are vortexed and centrifuged for 1 minute at 5000×g. 20 microliters of the resulting supernatant is placed into a microtiter plate well with 200 microliters of the BCA working reagent (Pierce). The plates are then vortexed and incubated another 30 minutes, then read at 600 nm using a Biomek 1000 microtiter plate reader.
400 microliters of casein solution (Pierce) are added to small test tubes along with 100 microliters of protease in buffer "A" (0.1M borate, 2 mM CaCl2 and 10 mM dimethylglutaric acid). At the end of the incubation, 60 microliters of trichloroacetic acid (100% w/v) is added, and the tubes are vortexed and centrifuged for 1 minute at 5000×g. 20 microliters of the resulting supernatant is placed into a microtiter plate well with 200 microliters of the BCA working reagent (Pierce). The plates are then vortexed and incubated another 30 minutes, then read at 600 nm using a Biomek 1000 microtiter plate reader.

[6] = tested on: Ac-Pro-Leu-Gly[2-mercapto-4-methyl-pentanoyl]-Leu-Gly-OEt; test: Hydrolysis of the thermolytic merc-peptide substrate (Ellman's reagent, 405 nm); type: biochemical
Experimental: The thermolytic substrate Ac-Pro-Leu-Gly[2-mercapto-4-methyl-pentanoyl]-Leu-Gly-OEt (i.e. the merc-peptide) is also used to further characterize the p45 metalloprotease and B.t. thermolysin.
Reaction mixtures contain 100 microliters of Ac-Pro-Leu-Gly[2-mercapto-4-methyl-pentanoyl]-Leu-Gly-OEt (1 mM, and 1 mM Ellman's reagent) and 100 microliters of either B.t. thermolysin or purified p45 metalloprotease (0-3 ug/ml) in sample buffer.

[7] = tested on: pro-trypsin-like F. oxysporum protease; test: Processing of pro-trypsin-like F. oxysporum protease to active trypsin-like protease
Experimental: Activatable pro-trypsin-like F. oxysporum protease is determined in microtiter wells as released trypsin-like F. oxysporum protease (tryptic) activity from pro-trypsin-like F. oxysporum protease after a 40 minute pre-incubation at room temperature with purified Fusarium oxysporum metalloprotease (approximately 6 ug).
Processed pro-trypsin-like F. oxysporum protease(i.e. mature trypsin-like F. oxysporum protease) activity is determined directly from microtiter plates containing the pre-incubated metalloprotease/pro-trypsin-like F. oxysporum protease cocktail (total volume=100 microliters), and 100 microliters of substrate (87 mg/ml.L-BAPNA stock in DMSO diluted 50-fold in sample buffer). Again, active trypsin-like F. oxysporum protease is determined as an increase in absorbance at 405 nm immediately after L-BAPNA addition.
Purified pro-trypsin-like F. oxysporum protease is added to fresh A. oryzae fermentation broths containing the recombinant p45 metalloprotease (approximately 90 mg/L) and incubated for either 1, 2, or 3 hours at room temperature. Levels of pro-trypsin-like F. oxysporum protease in the incubation mixtures range from 100 ug/ml to 13 mg/ml.
Purified pro-trypsin-like F. oxysporum protease (100 ug/ml) is added to various amounts of either purified recombinant p45 metalloprotease or purified B.s. metalloprotease.

[8] = tested on: FTC-labeled casein; test: Thermal stability profile, FTC-casein hydrolysis; type: biochemical; details: 15 minutes at various temperatures, Universal buffer pH 7; FIG. 9
Experimental: Purified p45 metalloprotease or B.t. thermolysin (Boehringer Mannheim) (50 microliters, 0.1 mg/ml) are incubated at various temperatures for 15-minutes in Universal buffer, pH 7. Ten microliters of sample are then added to 30 microliters of Universal pH buffer (pH 7) and 20 microliters of FTC-labeled casein and are incubated at 37° C. for 1 hour. 150 microliters of 5% TCA is added to acidify and precipitate casein (1 hour at room temperature). […] Samples are then analyzed on the fluorimeter (slit width=2.5 nm; excitation freq.=490 nm; emission freq.=525 nm; integration time=2 sec).

B1: p45 Metalloprotease: metalloprotease purified from Fusarium oxysporum DSM 2672 broth, 45 kDa band; also produced recombinantly in A. oryzae (protein)
chain: MRFSDSLLLIGLSSLAGAHPSRRAPNPSPLSKRGLDLEAFKLPPMAEYVPQDEVPDDVSAKVVTKRADYTETAKDLVKSTFPKATFRMVTDHYVGSNGIAHVNFKQTVNGIDIDNADFNVNIGADGEVFSYGNSFYEGKIPGPLTKRDEKDPVDALKDTVDVLSLPVEADKAKAEKKSKNHYTFTGTKGTVSKPEAKLTYLVDENKELKLTWRVETDIVDNWLLTYVNAAKTDEVVGVVDYVNEATYKVYPWGVNDPSKGSRSTVENPWNLAASEFTWLSDGSNNYTTTRGNNGIAQVNPSGGSTYLNNYRPDSPSLKFEYDYSTSTTTPTTYRDASIAQLFYTANKYHDLLYLLGFTEQAGNFQTNNNGQGGVGNDMVILNAQDGSGTNNANFATPADGQPGRMRMYLWTYSTPQRDCSFDAGVVIHEYTHGLSNRLTGGPANSGCLPGGESGGMGEGWGDFMATAIHIQSKDTRASNKVMGDWVYNNAAGIRAYPYSTSLTTNPYTYKSVNSLSGVHAIGTYWATVLYEVMWNLIDKHGKNDADEPKFNNGVPTDGKYLAMKLVVDGMSLQPCNPNMVQARDAIIDADTALTKGANKCEIWKGFAKRGLGTGAKYSASSRTESFALPSGC
[1]
  acceptable pH range (stability): 6.5-9
[1]; pH 3.5-10
  pH at which most stable: 8
[2]
  pH at which the protease functions optimally: ~9.5
[2]; universal pH buffers pH 5-11.5, 37° C., 1 hour, FIG. 10
  optimum pH for hydrolysis of FTC-casein: 9.5
[3]
  Specific Activity, substrate Ala-Ala-Ala-pNA: < 2 pmol pNA/min*mg
[3]; substrate 4.4 mM in 0.1M Tris, pH 8
  hydrolysis of succinyl-Ala-Ala-Ala-p-nitroanilide: neither, the p45 metalloprotease nor the B.s. thermolysin would hydrolyze
[4]; based on absorbance at 280 nm, preparative IEF fraction, FIG. 2
  specific activity relative to the conventional Bacillus metalloprotease: about 10 fold
[4]; sample alone
  tryptic activity of the sample alone: do not contain any tryptic activity
[4]; without 1,10-phenanthroline, without Zn2+
  Tryptic Activity: 1.33 Δ Abs/min × 10^-4
[5]
  Specific Activity, substrate Succinylated Casein (maximal level): 0.30 O.D.
[5]; pH 6.5, room temperature, 40 minutes, FIG. 8
  maximum absorbance, casein hydrolysis: around 0.3 O.D. units
[5]; relative to thermolysin, dispase, B.s. neutral metalloprotease, listed as p45
  maximum absorbance / maximal hydrolyzed casein relative to the other proteases: about 60%
[6]
  Specific Activity, substrate merc-peptide: 57 AU/min*mg
  effectiveness at hydrolyzing the mercapto-peptide relative to B.s. thermolysin: about 25 fold
[7]
  Specific Activity, substrate pro-trypsin: 1.2 g trypsin/min*mg
[7]; A. oryzae broth with approx. 90 mg/L recombinant p45, pro-trypsin 100 ug/ml to 13 mg/ml, room temperature, within 1 hour
  share of activatable pro-trypsin-like protease processed: 80-100%
[7]; pro-trypsin-like protease 100 ug/ml, within 1 hr.
  moles of pro-trypsin-like protease processed per mole of metalloprotease: about 50 moles
[8]
  optimum temperature for hydrolysis of FTC-casein: 50 °C

— patent US5807729A, “Metalloprotease having increased activity” (Novo Nordisk A/S, priority 1995, dated 1998)
